# From patent US20070020327A1
# Molecular target: HLA-A*0201 (human)
# Experiment: competitive inhibition of 125I-labelled standard peptide binding to purified HLA, gel filtration
# Details: not given
row,binding affinity ratio (ratio to standard peptide),Binder
1,0.0002,"KTYSVSFDSL (modifications not checked) [… (PSM, position 623)]"
2,0.0003,"KLLEKMGGSA (modifications not checked) [… (PSM, position 304)]"
3,0.0001,"KAWGEVKRQI (modifications not checked) [… (PSM, position 723)]"
4,0.0001,"IVIARYGKV (modifications not checked) [… (PSM, position 200)]"
5,0.0002,"KLIMYSAHDT (modifications not checked) [… (PAP, position 282)]"
6,0.004,"KLRELSELSL (modifications not checked) [… (PAP, position 234)]"
7,0.0002,"KAENIKKFL (modifications not checked) [… (PSM, position 66)]"
8,0.0002,KINCSGKIV (modifications not checked)
9,0.0002,"KIVIARYGKV (modifications not checked) [… (PSM, position 199)]"
10,0.0001,KINCSGKIVI (modifications not checked)
11,0.0002,KTHPNYISI (modifications not checked)
12,0.0001,KTHPNYISII (modifications not checked)

# Same assay, conditions: remark: other sources report otherwise
binding affinity ratio (ratio to standard peptide),IC50,Binder
0.0003,,"ITSWGPEPCAL (modifications not checked) [… (Kallikrein, position 226)]"
,50 nM,DLMLLRLSEPV (modifications not checked) [peptide 1419.13 … (HuK2.120.V11)]
0.0002,,"KITDVVKVLGL (modifications not checked) [… (Kallikrein, position 131)]"

# Molecular target: HLA-A*0201 (human)
# Experiment: inhibition of 125I-labelled probe peptide binding to purified HLA-A*0201, gel filtration
# Details: not given
row,IC50,Binder
1,< 200 nM,LMYSLVHNL (modifications not checked) [PSM.469 …]
2,< 200 nM,MMNDQLMFL (modifications not checked) [PSM.663 …]
3,< 200 nM,MLLRLSEPAEL (modifications not checked)
4,< 200 nM,TLMSAMTNL (modifications not checked) [PAP.112 …]
5,< 200 nM,LLLARAASLSL (modifications not checked) [PAP.6 …]

# Same assay, conditions: remark: other sources report otherwise
row,IC50,Binder
1,< 200 nM,ALDVYNGLL (modifications not checked) [PAP.299 …]
2,< 200 nM,SLHLLSNDMCA (modifications not checked) [HuK2.175 …]
3,< 200 nM,LMLLRLSEPA (modifications not checked) [PSA.117 …]
4,< 200 nM,VLAGGFFLL (modifications not checked) [PSM.27 …]
5,< 200 nM,ALGTTCYA (modifications not checked) [PSA.143 ALGTTCYA]
6,< 200 nM,LVLAGGFFL (modifications not checked) [PSM.26 …]
7,< 200 nM,LLQERGVAYI (modifications not checked) [PSM.441 …]
8,< 200 nM,KLQCVDLHV (modifications not checked) [PSA.166 …]
9,< 200 nM,GLPSIPVHPI (modifications not checked) [PSM.288 …]
10,< 200 nM,GMPEGDLVYV (modifications not checked) [PSM.168 …]
11,< 200 nM,FLRPRSLQCV (modifications not checked) [HuK2.165 …]
12,< 200 nM,FLTPKKLQCV (modifications not checked) [PSA.161 …]
13,< 200 nM,IMYSAHDTTV (modifications not checked) [PAP.284 …]
14,< 200 nM,QLMFLERAFI (modifications not checked) [PSM.667 …]
15,< 200 nM,ALFDIESKV (modifications not checked) [PSM.711 …]
16,< 200 nM,VLAKELKFV (modifications not checked) [PAP.30 …]
17,< 200 nM,ILLWQPIPV (modifications not checked) [PAP.135 …]
18,< 200 nM,RMMNDQLMFL (modifications not checked) [PSM.662 …]
19,< 200 nM,MLLRLSEPA (modifications not checked)
20,< 200 nM,FLNESYKHEQV (modifications not checked) [PAP.92 …]
21,< 200 nM,LLFFWLDRSV (modifications not checked) [PAP.21 …]

# Molecular target: HLA-A*0201 (human)
# Experiment: inhibition of 125I-labelled standard peptide binding to purified HLA-A*0201, gel filtration
# Details: not given
row,binding affinity ratio (IC50 of standard peptide / IC50 of test peptide),Binder
1,0.0001,"CVDLHVISNDV (modifications not checked) [… (PSA, position 169)]"
2,0.0001,"CIRNKSVILL (modifications not checked) [… (PSA, position 62)]"
3,0.0002,"CMTTNSHQGT (modifications not checked) [… (PAP, position 372)]"

# Molecular target: HLA-A*0202 (human)
# Experiment: competition with 125I-labelled standard peptide for purified HLA, gel filtration
# Details: not given
row,IC50,Binder
1,0.4 nM,LMYSLVHNL (modifications not checked) [peptide 1126.14 (PSM.469)]

# Same assay, conditions: remark: other sources report otherwise
row,IC50,Binder
1,0.2 nM,VLAGGFFLL (modifications not checked) [peptide 1126.10 (PSM.27)]
2,0.7 nM,ALFDIESKV (modifications not checked) [peptide 1129.08 (PSM.711)]

# Same assay, conditions: remark: other sources report otherwise; scale: ratio
row,binding affinity ratio,Binder
1,0.001,"SVGCTGAVPLI (modifications not checked) [Kallikrein (hK2) peptide … (position 11, 11 amino acids)]"

# Molecular target: HLA-A*0206 (human)
# Experiment: as above
# Details: remark: other sources report otherwise
binding affinity ratio (IC50 of standard peptide / IC50 of test peptide),IC50,Binder
0.0002,,PALGTTCYA (modifications not checked) [Kallikrein 146 …]
,40 nM,RMMNDQLMFL (modifications not checked) [peptide 1126.06 (PSM.662)]
0.0002,,PALGTTCYA (modifications not checked) [PSA 142 …]

# Same assay, conditions: remark: other sources report otherwise; scale: ratio
row,binding affinity ratio,Binder
1,-0.0001,"SLHLLSNDM (modifications not checked) [Kallikrein (hK2) peptide … (position 175, 9 amino acids)]"
2,0.0002,"LLRLSEPAELT (modifications not checked) [… (PSA, position 119, 11 amino acids)]"

# Molecular target: HLA-A*0201 (human)
# Experiment: as above
# Details: not given
row,IC50,Binder
1,64 nM,LMYSLVHNL (modifications not checked) [peptide 1126.14 (PSM.469)]

# Same assay, conditions: remark: other sources report otherwise; scale: ratio
row,binding affinity ratio,Binder
1,0.01,"SVGCTGAVPLI (modifications not checked) [Kallikrein (hK2) peptide … (position 11, 11 amino acids)]"
2,0.0003,"SLHLLSNDM (modifications not checked) [Kallikrein (hK2) peptide … (position 175, 9 amino acids)]"
3,0.0023,"LLRLSEPAELT (modifications not checked) [… (PSA, position 119, 11 amino acids)]"
